Measurements: patent publication US20040253250A1 (XCYTE THERAPIES, published 2004)
Values belong to the molecule of their own block, whether it stands above or below them. Bridge positions count the residues as written; N and C are the ends. Ends that are not written are not given here.

Key:
[1] = target: anti-CD3 mAb G19-4; assay: ELISA: immobilized G19-4 captures titrated CD3-Ig; detection with anti-human IgG hinge-CH2-CH3 HRP conjugate
[2] = target: CD3εδ-Ig heterodimer (human) (UniProt P07766); assay: BIACORE (SPR); Affinity (nM)
CD3εδ-Ig heterodimer (human), sequence (P07766 23-126, stated change not applied, chain 1 of 2): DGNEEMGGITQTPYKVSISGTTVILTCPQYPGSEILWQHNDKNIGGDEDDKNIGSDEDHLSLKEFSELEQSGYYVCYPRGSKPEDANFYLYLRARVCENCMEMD
CD3εδ-Ig heterodimer (human), sequence (P04234 22-105, stated change not applied, chain 2 of 2, further chain): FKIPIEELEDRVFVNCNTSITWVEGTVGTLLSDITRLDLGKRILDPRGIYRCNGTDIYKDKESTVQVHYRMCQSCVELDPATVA

[3] = target: CD3εδ-Ig heterodimer (human) (UniProt P07766); assay: ELISA, anti-CD3 mAb immobilized, fusion protein titrated
[4] = target: CD3εγ-Ig heterodimer (human) (UniProt P07766); assay: as above
CD3εγ-Ig heterodimer (human), sequence (P07766 23-126, chain 1 of 2): as the sequence (P07766 23-126, stated change not applied, chain 1 of 2) above
CD3εγ-Ig heterodimer (human), sequence (P09693 23-116, chain 2 of 2, further chain): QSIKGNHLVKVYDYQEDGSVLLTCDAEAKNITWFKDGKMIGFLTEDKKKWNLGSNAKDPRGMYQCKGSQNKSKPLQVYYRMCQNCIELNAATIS

[5] = target: CD3ε-Ig (human) (UniProt P07766); assay: as above
CD3ε-Ig (human), sequence (P07766 23-126): as the sequence (P07766 23-126, stated change not applied, chain 1 of 2) above

[6] = target: CD3γ-Ig (human) (UniProt P09693); assay: as above
CD3γ-Ig (human), sequence (P09693 23-116): as the sequence (P09693 23-116, chain 2 of 2, further chain) above

[7] = target: T1, CD28huIg (UniProt P10747 19-152); assay: BIACORE (SPR), fusion protein immobilized, peptide in solution
T1 construct: Immobilized on the BIACORE chip; construct not described; also called CD28Ig; CD28-Ig; not shown: human Ig part (huIg), not further described
Procedure: BIACORE uses surface plasmon resonance (SPR) which occurs when surface plasmon waves are excited at a metal/liquid interface. Light is directed at, and reflected due to bimolecular interactions between analyte (in solution) and ligand (immobilized). CD3εδhuIg, CD3εεhuIg and CD28huIg were covalently immobilized on a carboxymethy dextran chip using EDC/NHS chemistry followed by blocking with ethanol amine. Peptides were dissolved in HBS buffer at pH 7.2 with or without 1% DMSO, and were allowed to pass over these fusion protein-immobilized surfaces. Non-specific binding was substrated by passing these peptides over a controlled surface prepared by immobilizing EDC/NHS alone followed by ethanolamine.

[8] = target: CD3εδ-Ig heterodimer (human) (UniProt P07766); assay: BIACORE (SPR), fusion protein immobilized, peptide in solution; printed as Binding Affinity

Kd [8]: 10 µM
Molecule: YCYDYDGCY (disulfide 2-8 (inferred)) [… (SEQ ID NO:75)]

binding result [7]: no binding
Molecule: YCYDYDFCY (disulfide 2-8 (inferred)) [YCYDYDFCY (SEQ ID NO:77)]

Kd [8]: 0.5 µM
Molecule: YCFDWKNCY (disulfide 2-8 (inferred)) [… (SEQ ID NO:80)]

binding result [7]: no binding
Molecule: YCYDDHQCY (disulfide 2-8 (inferred)) [YCYDDHQCY (SEQ ID NO:79)]

Continued, molecule first:

Molecule: CD3εγ-Ig heterodimer (from UniProt P07766 23-126; P09693 23-116) (Fc fusion)
EC50 (read off the curve) [1]: 800 ng/mL

Molecule: CD3εδ-Ig heterodimer (from UniProt P07766 23-126; P04234 22-105) (Fc fusion)
EC50 (read off the curve) [1]: 100 ng/mL

Molecule: anti-CD3 mAb BC3 (antibody)
Kd [2]: 5.7 nM

Molecule: anti-CD3 mAb 64.1 (antibody)
Kd [2]: 7.58 nM

Molecule: anti-CD3 mAb G19-4 (antibody)
saturating concentration of the fusion protein [3]: 4 µg/mL
saturating concentration of the fusion protein [4]: 20 µg/mL
saturating concentration of the fusion protein [5]: > 100 µg/mL
saturating concentration of the fusion protein [6]: > 100 µg/mL
Kd [2]: 1.28 nM

Molecule: YCFDWKNCY (disulfide 2-8 (inferred)) [YCFDWKNCY (SEQ ID NO:80)]
binding result [7]: no binding

Molecule: YCYDYDGCY (disulfide 2-8 (inferred)) [YCYDYDGCY (SEQ ID NO:75)]
binding result [7]: no binding

Molecule: YCYDYDYCY (disulfide 2-8 (inferred)) [YCYDYDYCY (SEQ ID NO:76)]
binding result [7]: no binding

Molecule: YCYDDHTCY (disulfide 2-8 (inferred)) [YCYDDHTCY (SEQ ID NO:78)]
binding result [7]: no binding
